Assay [1] concerns the target T1, low molecular weight gingipain R (RgpB) (Porphyromonas gingivalis, UniProt P95493 230-664). Put plainly: cell-based or functional assay.
In assay [2] the target is T1, low molecular weight gingipain R (RgpB). Put plainly: enzyme inhibition kinetics.
Assay [3] addresses gingipain K (Kgp) (Porphyromonas gingivalis). In words: enzyme inhibition kinetics.
The target of assay [4] is T1, low molecular weight gingipain R (RgpB). In words: enzyme inhibition kinetics. This is another data set of the same source.
The target is the same in assay [5]. Put plainly: SEC. For orientation: Size exclusion chromatography separates by hydrodynamic size, large species first.
For assay [6] the target is unchanged. Put plainly: cell-based or functional assay. This is another data set of the same source.
For assay [7], the target named is membrane-type RgpB (mt-RgpB), glycosylated (Porphyromonas gingivalis, UniProt P95493 230-736, heavily glycosylated). Put plainly: cell-based or functional assay.

Bounds are passed on as bounds.

B1: PD_(RgpA), recombinant N-terminal prodomain of RgpA (domain or fragment)
chain: QQTELGRNPNVRLLESTQQSVTKVQFRMDNLKFTEVQTPKGMAQVPTYTEGVNLSEKGMPTLPILSRSLAVSDTREMKVEVVSSKFIEKKNVLIAPSKGMIMRNEDPKKIPYVYGKSYSQNKFFPGEIATLDDPFILRDVRGQVVNFAPLQYNPVTKTLRIYTEITVAVSETSEQGKNILNKKGTFAGFEDTYKRMFMNYEPGR
On to B1, for which, in assay [1], the “IC50 of inhibition of amidolytic activity (L-BAPNA), 10 nM enzyme” value came out at 15.7 nM; the “IC50 of inhibition of aminopeptidase activity (H-Arg-AMC), 10 nM enzyme” value stood at 6.9 nM; the “IC50 of inhibition of proteolytic activity (Azocoll), 10 nM enzyme” value amounted to 7.3 nM. Further, in assay [2], the affinity corresponds to a Ki of 2.1 nM. In addition, the Ki (commonly the equilibrium dissociation constant of an inhibitor or competing ligand from its target) in assay [3] is more than 5000 nM. For the same molecule, in assay [4], the off-rate (koff) (commonly the first-order rate constant of dissociation) was 1.3e-05 s⁻¹ and the association rate constant (kon) (in general, the second-order rate constant of association) amounted to 6070 M⁻¹ s⁻¹.

B2: PD_(RgpB), recombinant N-terminal prodomain of RgpB (domain or fragment)
chain: GPLGSQPAERGRNPQVRLLSAEQSMSKVQFRMDNLQFTGVQTSKGVAQVPTFTEGVNISEKGTPILPILSRSLAVSETRAMKVEVVSSKFIEKKDVLIAPSKGVISRAENPDQIPYVYGQSYNEDKFFPGEIATLSDPFILRDVRGQVVNFAPLQYNPVTKTLRIYTEIVVAVSETAEAGQNTISLVKNSTFTGFEDIYKSVFMNYEATR
For the molecule B2, in assay [1], the “IC50 of inhibition of amidolytic activity (L-BAPNA), 10 nM enzyme” value is 23.7 nM; the “IC50 of inhibition of aminopeptidase activity (H-Arg-AMC), 10 nM enzyme” value came out at 7.2 nM; the “IC50 of inhibition of proteolytic activity (Azocoll), 10 nM enzyme” value stood at 7.1 nM. In assay [2], this molecule registered an inhibition constant Ki of 6.2 nM. Besides, in assay [5], the stoichiometry N (commonly a count of units in the complex or per binding partner) stood at 1. In addition, in assay [6], the “IC50 of inhibition of Rgp activity (L-BAPNA): RgpB (purified non-glycosylated)” value amounted to 15 nM. The “IC50 of inhibition of Rgp activity (L-BAPNA): mt-RgpB (purified)” value in assay [7] was 188 nM. This molecule also came in with an inhibition constant Ki in assay [3] of more than 5000 nM. In assay [4], this molecule came in with a koff of 3.1e-05 s⁻¹ and an on-rate constant (kon) of 5020 M⁻¹ s⁻¹.

These data come from article PMC3773880 (Biochimica et biophysica acta, 2013).
